Common to all, as to experiment: cell-based or functional assay
Assay [1] concerns the target Env of HIV-1 strain 231965.c1 (HIV-1).
Assay [2] addresses Env of HIV-1 strain 250-4 (HIV-1).
Assay [3] addresses Env of HIV-1 strain 251-18 (HIV-1).
The target of assay [4] is Env of HIV-1 strain 3016.v5.c45 (HIV-1).
The target of assay [5] is Env of HIV-1 strain 3365.v2.c20 (HIV-1).
For assay [6], the target named is Env of HIV-1 strain 3415.v1.c1 (HIV-1).
Assay [7] deals with Env of HIV-1 strain Du172.17 (HIV-1).
Assay [8] addresses Env of HIV-1 strain H086.8 (HIV-1).
The target of assay [9] is Env of HIV-1 strain PVO.4 (HIV-1).
Assay [10] deals with Env of HIV-1 strain R1166.c1 (HIV-1).
The target in assay [11] is Env of HIV-1 strain REJO4541.67 (HIV-1).
For assay [12], the target named is Env of HIV-1 strain X1254_c3 (HIV-1).
The target in assay [13] is Env of HIV-1 strain YU2.DG (HIV-1).
Assay [14] addresses Env of HIV-1 strain ZM109F.PB4 (HIV-1).
For assay [15], the target named is Env of HIV-1 strain ZM53M.PB12 (HIV-1).
For assay [16], the target named is Env of MuLV.

B1: γ20κ11 (antibody, V domains shown)
VH: QIHLVQSGTEVKKPGSSVAVSCKAYGVNTFGLYAVNWVRQAPGQSLEYIGQIWRWKSSASHDFRGRVIISAVDLTGSSPPISSLEIKNLTSDDTAVYFCTATSTPDYWSGLHHDGVMAFSSWGQGTLISVSA
VL: DIQMTQSPSTLSASVGGTVRISCRASQSITGGWLAWYHQRPGKAPRLLIYRGSRLLGGVPSRFSGSAAGTDFTLTIANLQAEDFGTFYCQQYDTYPGTFGQGTKVEVKR
Turning to B1, the neutralization IC50 in [1], in assay [2], in assay [3], in assay [4], in assay [5] and in [6] was over 15 µg/mL in each case. For the same molecule, the neutralization IC50 is over 15 µg/mL in assay [7]; over 15 µg/mL in assay [8]; over 15 µg/mL in assay [9]; 20.2 µg/mL in [10]; over 15 µg/mL in assay [11]; 7.5 µg/mL in assay [12]. Moreover, the neutralization IC50 in assay [13] was over 15 µg/mL; in assay [14] it was over 15 µg/mL; in assay [15], over 15 µg/mL; in assay [16], over 30 µg/mL.

B2: γ52κ11 (antibody, V domains shown)
VH: QIHLVQSGTEVKKPGSSVTVSCKAYGVNTFGLYAVNWVRQAPGQSLEYIGQIWRWKSSASHHFRGRVLISAVDLTGSSPPISSLEIKNLTSDDTAVYFCTTTSTYDRWSGLHHDGVMAFSSWGQGTLISVSA
VL: DIQMTQSPSTLSASVGGTVRISCRASQSITGGWLAWYHQRPGKAPRLLIYRGSRLLGGVPSRFSGSAAGTDFTLTIANLQAEDFGTFYCQQYDTYPGTFGQGTKVEVKR
In the case of B2, the neutralization IC50 was 0.298 µg/mL in assay [1]; over 15 µg/mL in [2]; 0.647 µg/mL in assay [3]; 0.161 µg/mL in assay [4]; over 15 µg/mL in assay [5]; over 15 µg/mL in [6]. Also, the neutralization IC50 is over 15 µg/mL in [7]; 1.64 µg/mL in assay [8]; 0.103 µg/mL in assay [9]; 1.16 µg/mL in assay [10]; 3.47 µg/mL in [11]; 2.42 µg/mL in assay [12]. Besides, the neutralization IC50 was 0.298 µg/mL in [13], over 15 µg/mL in assay [14], over 15 µg/mL in assay [15] and over 30 µg/mL in assay [16].

B3: γ23κ11 (antibody, V domains shown)
VH: QIHLVQSGTEVKKPGSSVTVSCKAYGVNTFGLYAVNWVRQAPGQSLEYIGQIWRWKSSASHHFRGRVIISAVDLTGSSPPISSLEIKNLTSDDTAVYFCTTTSTSDYWSGLHHDGVMAFSSWGQGTLISVSA
VL: DIQMTQSPSTLSASVGGTVRISCRASQSITGGWLAWYHQRPGKAPRLLIYRGSRLLGGVPSRFSGSAAGTDFTLTIANLQAEDFGTFYCQQYDTYPGTFGQGTKVEVKR
For the molecule B3, the neutralization IC50 in assay [1] is 0.543 µg/mL; in assay [2], over 15 µg/mL; in [3], 2.49 µg/mL; in assay [4] it was 0.159 µg/mL; in assay [5] it was over 15 µg/mL; in [6] it was over 15 µg/mL. Besides, the neutralization IC50 in assay [7] was 11.3 µg/mL; in assay [8], over 15 µg/mL; in [9], 0.103 µg/mL; in [10], 1.61 µg/mL; in assay [11] it was 0.14 µg/mL; in assay [12] it was 1.7 µg/mL. The neutralization IC50 in assay [13] is 0.34 µg/mL; in assay [14], over 15 µg/mL; in assay [15], over 15 µg/mL; in assay [16], over 30 µg/mL.

B4: γ46κ11 (antibody, V domains shown)
VH: QIHLVQSGTEVKKPGSSVTVSCKAYGVNTFGLYAVNWVRQAPGQGLEYIGQIWRWKSSASHHFRGRVLISAVDLTGSSPPISSLEIKNVTSDDTAVYFCTTTSTYDKWSGLHHDGVVAFSSWGQGTLISVSA
VL: DIQMTQSPSTLSASVGGTVRISCRASQSITGGWLAWYHQRPGKAPRLLIYRGSRLLGGVPSRFSGSAAGTDFTLTIANLQAEDFGTFYCQQYDTYPGTFGQGTKVEVKR
With B4, the neutralization IC50 was 2.95 µg/mL in assay [1]; over 15 µg/mL in assay [2]; over 15 µg/mL in [3]; 1.93 µg/mL in assay [4]; over 15 µg/mL in assay [5]; over 15 µg/mL in [6]. In addition, the neutralization IC50 in [7] was over 15 µg/mL; in assay [8], over 15 µg/mL; in assay [9], 2.92 µg/mL; in [10], 3.39 µg/mL; in [11] it was over 15 µg/mL; in assay [12] it was 5.68 µg/mL. The neutralization IC50 in [13] is 2.1 µg/mL; in [14], over 15 µg/mL; in assay [15], over 15 µg/mL; in [16] it was over 30 µg/mL.

B5: γ22κ11 (antibody, V domains shown)
VH: QIHLVQSGTEVKKPGSSVTVSCKAYGVNTFGLYAVNWVRQAPGQSLEYIGQIWRWKSSASHHFRGRVLISAVDLTGPSPPISSLEIKNLTSDDTAVYFCTTTSTYDKWSGLHHDGVMAFSSWGQGTLISVSA
VL: DIQMTQSPSTLSASVGGTVRISCRASQSITGGWLAWYHQRPGKAPRLLIYRGSRLLGGVPSRFSGSAAGTDFTLTIANLQAEDFGTFYCQQYDTYPGTFGQGTKVEVKR
B5: the neutralization IC50 in assay [1], in assay [2], in [3], in [4], in assay [5] and in [6] was over 15 µg/mL in each case. Further, the neutralization IC50 in assay [7], in assay [8], in assay [9], in assay [10], in [11] and in assay [12] was over 15 µg/mL throughout. The neutralization IC50 in assay [13] is over 15 µg/mL; in assay [14], over 15 µg/mL; in [15], over 15 µg/mL; in assay [16], over 30 µg/mL.

B6: γ44κ11 (antibody, V domains shown)
VH: QIHLVQSGTEVKKPGSSVTVSCKAYEVNTFGLYAVNWVRQAPGQSLEYIGQIWRWKSSASHHFRGRVLISAVDLTGSSPPISSLEIKNVTSDDTAVYFCTTTSTHDKWSGLHHDGVMAFSSWGQGTLISVSA
VL: DIQMTQSPSTLSASVGGTVRISCRASQSITGGWLAWYHQRPGKAPRLLIYRGSRLLGGVPSRFSGSAAGTDFTLTIANLQAEDFGTFYCQQYDTYPGTFGQGTKVEVKR
For the molecule B6, the neutralization IC50 in assay [1], in [2], in assay [3], in assay [4], in assay [5] and in [6] was over 15 µg/mL each time. The neutralization IC50 in [7], in assay [8], in assay [9], in assay [10], in assay [11] and in assay [12] was over 15 µg/mL each time. Moreover, the neutralization IC50 in [13] is over 15 µg/mL; in [14] it was over 15 µg/mL; in assay [15], over 15 µg/mL; in assay [16] it was over 19 µg/mL.

(Values after patent publication US20180171001A1.)
